Results reported in US6713276.

Target: APP751sw (751 form of APP carrying the Swedish mutation), P05067
Sequence (P05067 whole entry, looked up, change not shown): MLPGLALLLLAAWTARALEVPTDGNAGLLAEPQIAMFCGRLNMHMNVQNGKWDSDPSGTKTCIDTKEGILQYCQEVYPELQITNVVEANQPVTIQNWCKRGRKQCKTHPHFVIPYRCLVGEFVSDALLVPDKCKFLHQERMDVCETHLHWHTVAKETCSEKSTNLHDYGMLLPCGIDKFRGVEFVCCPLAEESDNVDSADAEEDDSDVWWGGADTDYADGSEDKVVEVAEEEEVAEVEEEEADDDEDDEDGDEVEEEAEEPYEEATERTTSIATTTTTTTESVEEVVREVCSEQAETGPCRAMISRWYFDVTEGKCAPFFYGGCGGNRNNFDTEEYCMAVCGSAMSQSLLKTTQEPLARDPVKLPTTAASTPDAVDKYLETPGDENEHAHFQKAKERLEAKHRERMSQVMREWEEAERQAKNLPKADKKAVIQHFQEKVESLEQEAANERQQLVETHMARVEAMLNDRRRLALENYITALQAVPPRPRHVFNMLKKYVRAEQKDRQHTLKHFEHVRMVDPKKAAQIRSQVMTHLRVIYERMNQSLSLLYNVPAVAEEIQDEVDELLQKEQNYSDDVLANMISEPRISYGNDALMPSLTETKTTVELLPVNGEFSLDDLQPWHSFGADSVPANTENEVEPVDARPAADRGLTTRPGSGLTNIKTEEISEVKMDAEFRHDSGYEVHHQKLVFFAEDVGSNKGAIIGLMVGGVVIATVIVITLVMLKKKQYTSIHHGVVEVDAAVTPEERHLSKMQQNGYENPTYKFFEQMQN

B1: BACE2 D110A (protein)
chain: ALEPALASPAGAANFLAMVDNLQGDSGRGYYLEMLIGTPPQKLQILVATGSSNFAVAGTPHSYIDTYFDTERSSTYRSKGFDVTVKYTQGSWTGFVGEDLVTIPKGFNTSFLVNIATIFESENFFLPGIKWNGILGLAYATLAKPSSSLETFFDSLVTQANIPNVFSMQMCGAGLPVAGSGTNGGSLVLGGIEPSLYKGDIWYTPIKEEWYYQIEILKLEIGGQSLNLDCREYNADKAIVDSGTTLLRLPQKVFDAVVEAVARASLIPEFSDGFWTGSQLACWTNSETPWSYFPKISIYLRDENSSRSFRITILPQLYIQPMMGAGLNYECYRFGISPSTNALVIGATVMEGFYVIFDRAQKRVGFAASPCAEIAGAAVSEISGPFSTEDVASNCVPAQSLSEPILWIVSYALMSVCGAILLVLIVLLLLPFRCQRRPRDPEVVNDESSLVRHRWK
  β-NTF formation, Q-HP Sepharose fractions of membrane extracts reconstituted with APP751sw for 2 hours at 37° C.: extracts derived from BACE2 D110A transfected cells lost their ability to cleave at the β-secretase site in vitro
